Laboratory results published in patent publication US20160145328A1 (published 2016).

B1: DP47 VH A33D (other, name in Kabat numbering)
VH: QVQLLESGGGLVQPGGSLRLSCAASGFTFSSYDMSWVRQAPGKGLEWVSAISGSGGSTYYADSVKGRFTISRDNSKNTLYLQMNSLRAEDTAVYYCAKSYGAFDYWGQGTLVTVSS
B2: DP47 VH A40E (other, name in Kabat numbering)
VH: QVQLLESGGGLVQPGGSLRLSCAASGFTFSSYAMSWVRQEPGKGLEWVSAISGSGGSTYYADSVKGRFTISRDNSKNTLYLQMNSLRAEDTAVYYCAKSYGAFDYWGQGTLVTVSS
B3: DP47 VH T28E (other, name in Kabat numbering)
VH: QVQLLESGGGLVQPGGSLRLSCAASGFEFSSYAMSWVRQAPGKGLEWVSAISGSGGSTYYADSVKGRFTISRDNSKNTLYLQMNSLRAEDTAVYYCAKSYGAFDYWGQGTLVTVSS
B4: DP47 VH S35E (other, name in Kabat numbering)
VH: QVQLLESGGGLVQPGGSLRLSCAASGFTFSSYAMEWVRQAPGKGLEWVSAISGSGGSTYYADSVKGRFTISRDNSKNTLYLQMNSLRAEDTAVYYCAKSYGAFDYWGQGTLVTVSS
B5: DP47 VH S30D (other, name in Kabat numbering)
VH: QVQLLESGGGLVQPGGSLRLSCAASGFTFDSYAMSWVRQAPGKGLEWVSAISGSGGSTYYADSVKGRFTISRDNSKNTLYLQMNSLRAEDTAVYYCAKSYGAFDYWGQGTLVTVSS
B6: DP47 VH S31E (other, name in Kabat numbering)
VH: QVQLLESGGGLVQPGGSLRLSCAASGFTFSEYAMSWVRQAPGKGLEWVSAISGSGGSTYYADSVKGRFTISRDNSKNTLYLQMNSLRAEDTAVYYCAKSYGAFDYWGQGTLVTVSS
B7: DP47 VH A40D (other, name in Kabat numbering)
VH: QVQLLESGGGLVQPGGSLRLSCAASGFTFSSYAMSWVRQDPGKGLEWVSAISGSGGSTYYADSVKGRFTISRDNSKNTLYLQMNSLRAEDTAVYYCAKSYGAFDYWGQGTLVTVSS
B8: DP47 VH Q39D (other, name in Kabat numbering)
VH: QVQLLESGGGLVQPGGSLRLSCAASGFTFSSYAMSWVRDAPGKGLEWVSAISGSGGSTYYADSVKGRFTISRDNSKNTLYLQMNSLRAEDTAVYYCAKSYGAFDYWGQGTLVTVSS
B9: DP47 VH Q39E (other, name in Kabat numbering)
VH: QVQLLESGGGLVQPGGSLRLSCAASGFTFSSYAMSWVREAPGKGLEWVSAISGSGGSTYYADSVKGRFTISRDNSKNTLYLQMNSLRAEDTAVYYCAKSYGAFDYWGQGTLVTVSS
B10: DP47 VH G26D (other, name in Kabat numbering)
VH: QVQLLESGGGLVQPGGSLRLSCAASDFTFSSYAMSWVRQAPGKGLEWVSAISGSGGSTYYADSVKGRFTISRDNSKNTLYLQMNSLRAEDTAVYYCAKSYGAFDYWGQGTLVTVSS
B11: DP47 VH Y32D (other, name in Kabat numbering)
VH: QVQLLESGGGLVQPGGSLRLSCAASGFTFSSDAMSWVRQAPGKGLEWVSAISGSGGSTYYADSVKGRFTISRDNSKNTLYLQMNSLRAEDTAVYYCAKSYGAFDYWGQGTLVTVSS
B12: DP47 VH A33E (other, name in Kabat numbering)
VH: QVQLLESGGGLVQPGGSLRLSCAASGFTFSSYEMSWVRQAPGKGLEWVSAISGSGGSTYYADSVKGRFTISRDNSKNTLYLQMNSLRAEDTAVYYCAKSYGAFDYWGQGTLVTVSS
B13: DP47 VH T28D (other, name in Kabat numbering)
VH: QVQLLESGGGLVQPGGSLRLSCAASGFDFSSYAMSWVRQAPGKGLEWVSAISGSGGSTYYADSVKGRFTISRDNSKNTLYLQMNSLRAEDTAVYYCAKSYGAFDYWGQGTLVTVSS
B14: DP47 VH G26E (other, name in Kabat numbering)
VH: QVQLLESGGGLVQPGGSLRLSCAASEFTFSSYAMSWVRQAPGKGLEWVSAISGSGGSTYYADSVKGRFTISRDNSKNTLYLQMNSLRAEDTAVYYCAKSYGAFDYWGQGTLVTVSS
B15: DP47 VH S30E (other, name in Kabat numbering)
VH: QVQLLESGGGLVQPGGSLRLSCAASGFTFESYAMSWVRQAPGKGLEWVSAISGSGGSTYYADSVKGRFTISRDNSKNTLYLQMNSLRAEDTAVYYCAKSYGAFDYWGQGTLVTVSS
B16: DP47 VH S35D (other, name in Kabat numbering)
VH: QVQLLESGGGLVQPGGSLRLSCAASGFTFSSYAMDWVRQAPGKGLEWVSAISGSGGSTYYADSVKGRFTISRDNSKNTLYLQMNSLRAEDTAVYYCAKSYGAFDYWGQGTLVTVSS
B17: DP47 VH S35G (other, name in Kabat numbering)
VH: QVQLLESGGGLVQPGGSLRLSCAASGFTFSSYAMGWVRQAPGKGLEWVSAISGSGGSTYYADSVKGRFTISRDNSKNTLYLQMNSLRAEDTAVYYCAKSYGAFDYWGQGTLVTVSS
B18: DP47 VH T28R (other, name in Kabat numbering)
VH: QVQLLESGGGLVQPGGSLRLSCAASGFRFSSYAMSWVRQAPGKGLEWVSAISGSGGSTYYADSVKGRFTISRDNSKNTLYLQMNSLRAEDTAVYYCAKSYGAFDYWGQGTLVTVSS
B19: DP47 VH S35D + S30D (other, name in Kabat numbering)
VH: QVQLLESGGGLVQPGGSLRLSCAASGFTFDSYAMDWVRQAPGKGLEWVSAISGSGGSTYYADSVKGRFTISRDNSKNTLYLQMNSLRAEDTAVYYCAKSYGAFDYWGQGTLVTVSS
B20: DP47 VH T28D + Y32D (other, name in Kabat numbering)
VH: QVQLLESGGGLVQPGGSLRLSCAASGFDFSSDAMSWVRQAPGKGLEWVSAISGSGGSTYYADSVKGRFTISRDNSKNTLYLQMNSLRAEDTAVYYCAKSYGAFDYWGQGTLVTVSS
B21: DP47 VH T28D + S35D (other, name in Kabat numbering)
VH: QVQLLESGGGLVQPGGSLRLSCAASGFDFSSYAMDWVRQAPGKGLEWVSAISGSGGSTYYADSVKGRFTISRDNSKNTLYLQMNSLRAEDTAVYYCAKSYGAFDYWGQGTLVTVSS
B22: DP47 VH T28D + A33D (other, name in Kabat numbering)
VH: QVQLLESGGGLVQPGGSLRLSCAASGFDFSSYDMSWVRQAPGKGLEWVSAISGSGGSTYYADSVKGRFTISRDNSKNTLYLQMNSLRAEDTAVYYCAKSYGAFDYWGQGTLVTVSS
B23: DP47 VH S35D + Y32D (other, name in Kabat numbering)
VH: QVQLLESGGGLVQPGGSLRLSCAASGFTFSSDAMDWVRQAPGKGLEWVSAISGSGGSTYYADSVKGRFTISRDNSKNTLYLQMNSLRAEDTAVYYCAKSYGAFDYWGQGTLVTVSS
B24: DP47 VH T28D + S30D (other, name in Kabat numbering)
VH: QVQLLESGGGLVQPGGSLRLSCAASGFDFDSYAMSWVRQAPGKGLEWVSAISGSGGSTYYADSVKGRFTISRDNSKNTLYLQMNSLRAEDTAVYYCAKSYGAFDYWGQGTLVTVSS
B25: DP47 VH T28D + S31D (other, name in Kabat numbering)
VH: QVQLLESGGGLVQPGGSLRLSCAASGFDFSDYAMSWVRQAPGKGLEWVSAISGSGGSTYYADSVKGRFTISRDNSKNTLYLQMNSLRAEDTAVYYCAKSYGAFDYWGQGTLVTVSS
B26: DP47 VH S35D + S31D (other, name in Kabat numbering)
VH: QVQLLESGGGLVQPGGSLRLSCAASGFTFSDYAMDWVRQAPGKGLEWVSAISGSGGSTYYADSVKGRFTISRDNSKNTLYLQMNSLRAEDTAVYYCAKSYGAFDYWGQGTLVTVSS
B27: DP47 VH S35D + A33D (other, name in Kabat numbering)
VH: QVQLLESGGGLVQPGGSLRLSCAASGFTFSSYDMDWVRQAPGKGLEWVSAISGSGGSTYYADSVKGRFTISRDNSKNTLYLQMNSLRAEDTAVYYCAKSYGAFDYWGQGTLVTVSS

Target: T1, protein A (UniProt P38507 37-477)
T1 construct: also called Protein A superantigen
Assay: Heat/Cool phage ELISA: phage-displayed VH, 80 C 10 min then 4 C 10 min, captured on coated protein A; signal as % of untreated sample
Procedure: (§1) The aggregation-resistance of clones was analyzed by measuring retention of signal after heat incubation in a phage ELISA format (McCafferty et al., 1990; Jespers et al., 2004). Wells of a Nunc Maxisorp Immuno-plate were coated overnight with protein A at a concentration of about 5 μg/ml in phosphate-buffered saline (PBS). The plate was washed once with PBS and blocked with about 4% (w/v) milk powder diluted in PBS (MPBS). Single colonies were picked from agar plates and grown overnight in 2×TY medium (containing about 16 g/L tryptone; about 10 g/L yeast extract; about 5 g/L NaCl, pH 7.0) supplemented with about 15 μg/ml tetracycline shaking at about 30° C. Cells were removed by centrifugation and phages were biotinylated directly in the culture supernatant by adding biotin-PEO₄-N-hydroxysuccinimide (Pierce; about 50 μM final concentration). For heat selection, supernatant was first incubated at about 80° C. for about 10 min and then at about 4° C. for about 10 min. Supernatant was added to the blocked ELISA wells. After three washes with PBS, bound phage particles were detected using an Extravidin-HRP conjugate (Sigma) and 3,3′,5,5′-tetramethylbenzidine (TMB) substrate. Absorbance was calculated by subtracting measurements at 450 and 650 nm.
To identify additional residues in CDR1 that confer aggregation-resistance on VH, surface-exposed residues of DP47 between positions 26 to 35 (numbering according to the Kabat numbering system) were substituted for aspartic acid (D) or glutamic acid (E). Framework residues at positions 39 and 40 were also substituted for aspartic acid (D) or glutamic acid (E). […] Correctly folded VH were captured by protein A ELISA and the absorbance signal of the treated sample was calculated as a percentage of the untreated sample.

Compared with B1, B2 is lower in “Retained binding to protein A (%)” value: 10% for the first, 1.9% for the second.

First: B3
Second: B4
The “Retained binding to protein A (%)” value of the first is higher: 6.5% for the first, 4.5% for the second.

Compared with B5, B6 is lower in “Retained binding to protein A (%)” value: 21.8% for the first, 6.1% for the second.

First: B7
Second: B8
The “Retained binding to protein A (%)” value of the first is lower: 2.8% for the first, 3.7% for the second.

First: B9
Second: B10
The “Retained binding to protein A (%)” value of the first is lower: 2.5% for the first, 6.1% for the second.

Compared with B11, B12 is lower in “Retained binding to protein A (%)” value: 41.8% for the first, 2% for the second.

Compared with B13, B14 is lower in “Retained binding to protein A (%)” value: 25.1% for the first, 1.8% for the second.

Compared with B15, B16 is higher in “Retained binding to protein A (%)” value: 2.1% for the first, 12.8% for the second.

Target: T1, protein A
Assay: as above
Remark: another data set of the same source
Procedure: as §1
Single amino acid changes in the CDR1 region of the DP47 VH domain, and combinations thereof, were constructed and tested for aggregation-resistance, as detailed above (see the Materials and Methods section). […] Correctly folded VH were captured by protein A ELISA and the absorbance signal of the treated sample was calculated as a percentage of the untreated sample.

Compared with B1, B17 is lower in “Retained binding to protein A” value: 26% for the first, 4% for the second.

With B18 the “Retained binding to protein A” value was 2%.

Target: T1, protein A
Assay: as above
Remark: another data set of the same source
Procedure: as §1
VH domains were produced comprising negatively charged amino acids at positions 28 and/or 35 in CDR1 of DP47 and at least one other position, as set out in Table 7. Aggregation-resistance of the VH domains was assessed using the “Heat/Cool” assay as described in Example 1.2.

Going from B19 to B20, the “Retained binding to protein A (%)” value rises from 43.5% to 64.7%.

First: B21
Second: B22
The “Retained binding to protein A (%)” value of the first is lower: 45.8% for the first, 62% for the second.

First: B23
Second: B24
The “Retained binding to protein A (%)” value of the first is higher: 61% for the first, 39.4% for the second.

First: B25
Second: B26
The “Retained binding to protein A (%)” value of the first is lower: 44.8% for the first, 48.3% for the second.

B27 was tested, and the “Retained binding to protein A (%)” value was 40.3%.
